{"source": "the supplement of paper PMC9112550", "about": "“Optimization of the antimicrobial peptide Bac7 by deep mutational scanning” (BMC Biology, 2022);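 further: peptides expressed intracellularly from a pBAD plasmid library in pooled LB shake-flask culture, induced with 0.3% L-arabinose, DNA abundance read by NGS, three biological replicates, DESeq2 with apeglm shrinkage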", "data": [{"test_system": "Escherichia coli TOP10", "experiment": "shrunken log2 fold change of peptide-encoding DNA abundance (4.5 h post-induction vs induction); higher = less antimicrobial activity (less host growth inhibition)", "conditions": "time post-induction: 4.5 h; library: site-saturation at positions 5, 18, 19, 20", "values": [{"sequence": "RRIRIRPPRLPRPRPRPSSCPRP", "shrunken log2 fold change": -0.17}, {"sequence": "RRIRIRPPRLPRPRPRPSSFPRP", "shrunken log2 fold change": -0.711}, {"sequence": "RRIRIRPPRLPRPRPRPSSKPRP", "shrunken log2 fold change": -0.599}, {"sequence": "RRIRIRPPRLPRPRPRPSTMPRP", "shrunken log2 fold change": -1.18}, {"sequence": "RRIRIRPPRLPRPRPRPSTRPRP", "shrunken log2 fold change": -0.54}, {"sequence": "RRIRIRPPRLPRPRPRPSVSPRP", "shrunken log2 fold change": -0.0804}, {"sequence": "RRIRIRPPRLPRPRPRPSWDPRP", "shrunken log2 fold change": -0.462}, {"sequence": "RRIRIRPPRLPRPRPRPSWHPRP", "shrunken log2 fold change": -0.707}, {"sequence": "RRIRIRPPRLPRPRPRPSYMPRP", "shrunken log2 fold change": -1.53}, {"sequence": "RRIRIRPPRLPRPRPRPTDGPRP", "shrunken log2 fold change": -0.00546}, {"sequence": "RRIRIRPPRLPRPRPRPTDMPRP", "shrunken log2 fold change": -0.385}, {"sequence": "RRIRIRPPRLPRPRPRPTDVPRP", "shrunken log2 fold change": -0.444}, {"sequence": "RRIRIRPPRLPRPRPRPTEPPRP", "shrunken log2 fold change": 0.0374}, {"sequence": "RRIRIRPPRLPRPRPRPTFCPRP", "shrunken log2 fold change": -0.02}, {"sequence": "RRIRIRPPRLPRPRPRPTFTPRP", "shrunken log2 fold change": -0.373}, {"sequence": "RRIRIRPPRLPRPRPRPTGQPRP", "shrunken log2 fold change": 0.0119}, {"sequence": "RRIRIRPPRLPRPRPRPTHSPRP", "shrunken log2 fold change": -0.469}, {"sequence": "RRIRIRPPRLPRPRPRPTIAPRP", "shrunken log2 fold change": -0.327}, {"sequence": "RRIRIRPPRLPRPRPRPTIEPRP", "shrunken log2 fold change": -0.44}, {"sequence": "RRIRIRPPRLPRPRPRPTKQPRP", "shrunken log2 fold change": -0.242}, {"sequence": "RRIRIRPPRLPRPRPRPTLLPRP", "shrunken log2 fold change": -0.374}, {"sequence": "RRIRIRPPRLPRPRPRPTMAPRP", "shrunken log2 fold change": -0.445}, {"sequence": "RRIRIRPPRLPRPRPRPTMNPRP", "shrunken log2 fold change": -1.01}, {"sequence": "RRIRIRPPRLPRPRPRPTNDPRP", "shrunken log2 fold change": -0.246}, {"sequence": "RRIRIRPPRLPRPRPRPTNPPRP", "shrunken log2 fold change": -0.454}, {"sequence": "RRIRIRPPRLPRPRPRPTNWPRP", "shrunken log2 fold change": -0.128}, {"sequence": "RRIRIRPPRLPRPRPRPTQNPRP", "shrunken log2 fold change": 0.19}, {"sequence": "RRIRIRPPRLPRPRPRPTRDPRP", "shrunken log2 fold change": -0.0265}, {"sequence": "RRIRIRPPRLPRPRPRPTREPRP", "shrunken log2 fold change": 0.255}, {"sequence": "RRIRIRPPRLPRPRPRPTTIPRP", "shrunken log2 fold change": -0.578}, {"sequence": "RRIRIRPPRLPRPRPRPTVYPRP", "shrunken log2 fold change": -0.177}, {"sequence": "RRIRIRPPRLPRPRPRPTWQPRP", "shrunken log2 fold change": 0.0597}, {"sequence": "RRIRIRPPRLPRPRPRPTYRPRP", "shrunken log2 fold change": -0.0791}, {"sequence": "RRIRIRPPRLPRPRPRPVAIPRP", "shrunken log2 fold change": 0.0188}, {"sequence": "RRIRIRPPRLPRPRPRPVAQPRP", "shrunken log2 fold change": -0.103}, {"sequence": "RRIRIRPPRLPRPRPRPVESPRP", "shrunken log2 fold change": -0.0832}, {"sequence": "RRIRIRPPRLPRPRPRPVHKPRP", "shrunken log2 fold change": -0.442}, {"sequence": "RRIRIRPPRLPRPRPRPVHYPRP", "shrunken log2 fold change": -0.497}, {"sequence": "RRIRIRPPRLPRPRPRPVIDPRP", "shrunken log2 fold change": -0.0443}, {"sequence": "RRIRIRPPRLPRPRPRPVIIPRP", "shrunken log2 fold change": -0.146}, {"sequence": "RRIRIRPPRLPRPRPRPVIYPRP", "shrunken log2 fold change": -0.695}, {"sequence": "RRIRIRPPRLPRPRPRPVKDPRP", "shrunken log2 fold change": -0.00153}, {"sequence": "RRIRIRPPRLPRPRPRPVKNPRP", "shrunken log2 fold change": -0.765}, {"sequence": "RRIRIRPPRLPRPRPRPVMQPRP", "shrunken log2 fold change": -0.00187}, {"sequence": "RRIRIRPPRLPRPRPRPVNDPRP", "shrunken log2 fold change": -0.00973}, {"sequence": "RRIRIRPPRLPRPRPRPVNHPRP", "shrunken log2 fold change": -0.288}, {"sequence": "RRIRIRPPRLPRPRPRPVNSPRP", "shrunken log2 fold change": -0.319}, {"sequence": "RRIRIRPPRLPRPRPRPVPDPRP", "shrunken log2 fold change": -0.0498}, {"sequence": "RRIRIRPPRLPRPRPRPVPGPRP", "shrunken log2 fold change": -0.0459}, {"sequence": "RRIRIRPPRLPRPRPRPVPHPRP", "shrunken log2 fold change": 0.0565}, {"sequence": "RRIRIRPPRLPRPRPRPVPMPRP", "shrunken log2 fold change": -0.143}, {"sequence": "RRIRIRPPRLPRPRPRPVPPPRP", "shrunken log2 fold change": 0.144}, {"sequence": "RRIRIRPPRLPRPRPRPVQDPRP", "shrunken log2 fold change": -1.09}, {"sequence": "RRIRIRPPRLPRPRPRPVQQPRP", "shrunken log2 fold change": -0.168}, {"sequence": "RRIRIRPPRLPRPRPRPVQVPRP", "shrunken log2 fold change": -0.0757}, {"sequence": "RRIRIRPPRLPRPRPRPVTDPRP", "shrunken log2 fold change": -0.00257}, {"sequence": "RRIRIRPPRLPRPRPRPVTGPRP", "shrunken log2 fold change": -0.37}, {"sequence": "RRIRIRPPRLPRPRPRPVTMPRP", "shrunken log2 fold change": -1.03}, {"sequence": "RRIRIRPPRLPRPRPRPVVKPRP", "shrunken log2 fold change": -0.151}, {"sequence": "RRIRIRPPRLPRPRPRPVVPPRP", "shrunken log2 fold change": -0.215}, {"sequence": "RRIRIRPPRLPRPRPRPVVQPRP", "shrunken log2 fold change": -1.04}, {"sequence": "RRIRIRPPRLPRPRPRPVYFPRP", "shrunken log2 fold change": -0.807}, {"sequence": "RRIRIRPPRLPRPRPRPVYIPRP", "shrunken log2 fold change": -0.154}, {"sequence": "RRIRIRPPRLPRPRPRPWAYPRP", "shrunken log2 fold change": 0.0382}, {"sequence": "RRIRIRPPRLPRPRPRPWCEPRP", "shrunken log2 fold change": -0.639}, {"sequence": "RRIRIRPPRLPRPRPRPWCHPRP", "shrunken log2 fold change": -0.122}, {"sequence": "RRIRIRPPRLPRPRPRPWCPPRP", "shrunken log2 fold change": 0.0944}, {"sequence": "RRIRIRPPRLPRPRPRPWDAPRP", "shrunken log2 fold change": -0.00869}, {"sequence": "RRIRIRPPRLPRPRPRPWGFPRP", "shrunken log2 fold change": -0.185}, {"sequence": "RRIRIRPPRLPRPRPRPWGHPRP", "shrunken log2 fold change": -0.0191}, {"sequence": "RRIRIRPPRLPRPRPRPWGIPRP", "shrunken log2 fold change": -0.109}, {"sequence": "RRIRIRPPRLPRPRPRPWGVPRP", "shrunken log2 fold change": -0.888}, {"sequence": "RRIRIRPPRLPRPRPRPWHWPRP", "shrunken log2 fold change": -0.0771}, {"sequence": "RRIRIRPPRLPRPRPRPWIYPRP", "shrunken log2 fold change": -0.126}, {"sequence": "RRIRIRPPRLPRPRPRPWMFPRP", "shrunken log2 fold change": -0.261}, {"sequence": "RRIRIRPPRLPRPRPRPWNFPRP", "shrunken log2 fold change": -0.00674}, {"sequence": "RRIRIRPPRLPRPRPRPWNPPRP", "shrunken log2 fold change": -0.106}, {"sequence": "RRIRIRPPRLPRPRPRPWPCPRP", "shrunken log2 fold change": -0.0182}, {"sequence": "RRIRIRPPRLPRPRPRPWPRPRP", "shrunken log2 fold change": 0.277}, {"sequence": "RRIRIRPPRLPRPRPRPWQAPRP", "shrunken log2 fold change": -0.115}, {"sequence": "RRIRIRPPRLPRPRPRPWRHPRP", "shrunken log2 fold change": -0.083}, {"sequence": "RRIRIRPPRLPRPRPRPWRLPRP", "shrunken log2 fold change": -0.0935}, {"sequence": "RRIRIRPPRLPRPRPRPWRWPRP", "shrunken log2 fold change": 0.182}, {"sequence": "RRIRIRPPRLPRPRPRPWSDPRP", "shrunken log2 fold change": -0.0344}, {"sequence": "RRIRIRPPRLPRPRPRPWSYPRP", "shrunken log2 fold change": -0.427}, {"sequence": "RRIRIRPPRLPRPRPRPWVNPRP", "shrunken log2 fold change": -0.722}, {"sequence": "RRIRIRPPRLPRPRPRPWWIPRP", "shrunken log2 fold change": -0.0829}, {"sequence": "RRIRIRPPRLPRPRPRPWYCPRP", "shrunken log2 fold change": -0.0341}, {"sequence": "RRIRIRPPRLPRPRPRPYAAPRP", "shrunken log2 fold change": -0.563}, {"sequence": "RRIRIRPPRLPRPRPRPYAEPRP", "shrunken log2 fold change": -0.844}, {"sequence": "RRIRIRPPRLPRPRPRPYAQPRP", "shrunken log2 fold change": -0.121}, {"sequence": "RRIRIRPPRLPRPRPRPYASPRP", "shrunken log2 fold change": -0.206}, {"sequence": "RRIRIRPPRLPRPRPRPYCCPRP", "shrunken log2 fold change": -0.476}, {"sequence": "RRIRIRPPRLPRPRPRPYDLPRP", "shrunken log2 fold change": -0.427}, {"sequence": "RRIRIRPPRLPRPRPRPYEIPRP", "shrunken log2 fold change": -0.811}, {"sequence": "RRIRIRPPRLPRPRPRPYGFPRP", "shrunken log2 fold change": -0.0889}, {"sequence": "RRIRIRPPRLPRPRPRPYGHPRP", "shrunken log2 fold change": 0.0184}, {"sequence": "RRIRIRPPRLPRPRPRPYHDPRP", "shrunken log2 fold change": -0.28}, {"sequence": "RRIRIRPPRLPRPRPRPYHNPRP", "shrunken log2 fold change": -1.25}, {"sequence": "RRIRIRPPRLPRPRPRPYHRPRP", "shrunken log2 fold change": -0.00133}, {"sequence": "RRIRIRPPRLPRPRPRPYKFPRP", "shrunken log2 fold change": -0.616}, {"sequence": "RRIRIRPPRLPRPRPRPYKVPRP", "shrunken log2 fold change": -0.385}, {"sequence": "RRIRIRPPRLPRPRPRPYLGPRP", "shrunken log2 fold change": -0.279}, {"sequence": "RRIRIRPPRLPRPRPRPYMCPRP", "shrunken log2 fold change": -0.318}, {"sequence": "RRIRIRPPRLPRPRPRPYMDPRP", "shrunken log2 fold change": -0.315}, {"sequence": "RRIRIRPPRLPRPRPRPYMEPRP", "shrunken log2 fold change": -0.677}, {"sequence": "RRIRIRPPRLPRPRPRPYMIPRP", "shrunken log2 fold change": -0.307}, {"sequence": "RRIRIRPPRLPRPRPRPYPDPRP", "shrunken log2 fold change": -0.039}, {"sequence": "RRIRIRPPRLPRPRPRPYPIPRP", "shrunken log2 fold change": -0.139}]}]}
